In the nanobody polyreactivity screen of Harvey et al. (2022):

Test: yeast display, Sf9 membrane polyspecificity reagent, FACS + sequencing; frameworks hold sequencing errors
Summary of the method: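 Genes from sorted yeast were amplified by colony PCR, read by MiSeq 2 × 250 sequencing and filtered on CDR length. These cells carried a synthetic nanobody library in Saccharomyces cerevisiae BJ5465 and were sorted by FACS into low and high (top ~1%) gates on anti-HA and streptavidin fluorescence. Polyreactivity is labelled according to the gate of origin.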

Sequence	polyreactivity (PSR sort gate)
QVQLVESGGGLVQAGGSLRLSCAASGSILNDYAMGWYRQAPGKERELVAGISRGGGTYYADSVKGRFTISRDNAKNTVYLQMNSLKPEDTAVYYCAKRIYWYHYRYDYWGQGTQVTVSS	high polyreactivity
QVQLVESGGGLVQAGGSLRLSCAASGRIFRYNAMGWYRQAPGKERELVAAISRSGGSTYYADSVKGRFTISRDNAKNTVYLQINSLKPEDTAVYYCAVGSPYGGRAPWVRGGDYWGQGTQVTVSS	high polyreactivity
QVQLVESGGGLVQAVGSLRLTCAASGSIFGHYAMGLSRHAPGKDRELVAAISASTGRTYNADSVKGRFTISRDNAKNPVYLQMNSLKPEDTAFYYCAVRVHWTIWDYYYWGQGTQVTVSS	high polyreactivity
QVQLVESGGGLDQAGGSLRLSCAASGLIFIQNAMGWYRQAPGKEREFVAAISVSGRTYYADSVKGRFTISRDNAKNTVYLQMNSLKPEDTAVYYCAARSRSWRQRYGDFDYWGQGTQVTVSS	low polyreactivity
QVQLVESGGGLVQAGGSLRLSCAASGFIFTRYAMGWYRQAPGKERELVAAISWIGTSTYYADSVKGRFTISRDNAKNTVYLQMNSLKPEDTAVYYCNALRYSTGRPGFYLGYDYWGQGTQVTVSS	high polyreactivity
QVQLVESGGGLVQAGGSLRLSCAASGRIYRDYAMGWYRQAPGKERELVATITWSGATTYYADSVKGRFTISRDNAKNTVYLQMNSLKPEDTAVYYCAKVYPRFYTFGEYNYWGQGTQVTVSS	low polyreactivity
QVQLVESGGGLVQAGGSLRLSCAASGSIFVTNAMGWYRQAPGKERELVAAIRGGGGSTYYADSVKGRFTISRDNAKNTVYLQMNSLKPEDTAVYYCNADRRGYLQSEMDYWGQGTQVTVSS	low polyreactivity
QVQLVESGGGLVQAGGSLRLSCAASGSIFEYYPMGWYRQAPGKERELVAAISWSGGSTYYADSVKGRFSISRDNAKNTVYFQMNSLKPEDTAVYYCAARGYWGQGTQVTVSS	low polyreactivity
QVQLVESGGGLVQAGGSLRLSCAASGGIFRGYAMGWYRQAPGKERELVAAITKRGGRTYYADSVKGRFTISRDNAKNTVYLQMNSLNPEDTAVFYCAADYYAAYHLPDLDYDYWGQGTQVTVSS	high polyreactivity
QVQLVESGGGLVQAGGSLRLSCDASGSIFMYNAMGWYRQAPGKERELVAAISSSSDRTYYADSVKGRFTISRDNAKKTVYLQMNSLKPEDTAVYYCNVVYIGWRKYEYWGQGTQVTVSS	high polyreactivity
QVQLVESGGGLVQAGGSLRLSCAASGSIFSYYDMGWYRQAPGKERELVAGISRGGSTNYADSVKGRFTISRDNAKNTVYLQMNSLKPEDTAVYYCNADQSSRTYPFRRSRRSWLYGYWGQGTQVTVSS	low polyreactivity
QVQLVESGGGLVQAGGSLRLSCAASGIIFRVYAMGWYRQAPGKERELVAAITKGGGRTYYADSVKGRFTISRDIAKNTVYLQMNCLIPEDTAVYYCAARSSSRFEYWGQGTEVTVSS	high polyreactivity
QVQLVESGGGLFQAGGSLRLSCAASGRIFRGYAMGWYRQAPGKERELVAAIDRVGRTKYADSVKGRFTISRDNAKNTVYLHMNSLKPEDTAVYYCAAKASRVDWGYGYWGQGTQVTVSA	high polyreactivity
QVQLVESGGGLVQAGGSLRLSCAASGRIFGFYAMGWYRQAPGKERELVARITLSGGRTYYADSVKGRFTISRDNAKNTVYLQMNSLKPEDTEVYYCAADSIGRLWGYGYWGQGTQVTVSS	high polyreactivity
QVQLVESGGGLVHAGGSLRISCAASGRTFWVYAMGWYRKAPGKERELVAAISWSGGRTYYADSVKGRFTISRDNAKNTVYLQMNSLKPEDTAVYYCAATTGVRSRRYYYWGQGTQVTVSS	low polyreactivity
QVQLVESGGGLVQAGGSLRLSCAASGFIFVYNAMGWYRPAPGKERELVAAIDYGGGSTTYADSVKGRFTISRDNAKNTVYLQMNSLKPEDTAVYYCAAYYRYLDDIYEYEYWGQGTQVTVSS	low polyreactivity
QVQLVESGGGLVQAGGSLRLSCAASGSTLYYNAMGWYRQAPGKERELVAAISWSGGSTYYADSVKGRFTISRDNAKNTVYLQMNSLKPEDTAVYYCAADQSTVLDVGSWGQGTQVTVSS	low polyreactivity
QVQLVESGAGLVQAGGSLRLRCAASGSIFPGSALGWYRQARGKERELVAAITFGGAITYYADSVKGRFTISRDNAKNTVYLLMNSLKPEDSAVYYCAAKSPRILLDYWGQGTQVTVSS	low polyreactivity
QVQLVESGGGLVQAGGSLRLSCAASGYTFRFNAMGWYRQAPGKEREFVAAIDFGGAGTYYADSVKGRFTISRDNAKNNVYLQMHSLKPEDTAVYYCNARDGVTSEFDYWGQGTQVTVSS	low polyreactivity
QVQLVESGGGLVQAGCSLRLSCAASGSTFSYIAMGWYRQAPGKERELVAAITSGSSTNYADSVKGRFTISRDNAKYTVYLQMNSLKPEDTAVSYCAADGYQDKYYWLETWVGYWGHGTQVTVSS	low polyreactivity
QVQLVESGGGLVQAGGSLRLSCAASGFTITHYAMGWYRQAPGKERELVAAISTSGGSTYYADSVKGRFTISRDNAKNTVYLQMNSLKPEDTAVYYCAARRDGWVQWGYYYWGQGTQVTVSS	low polyreactivity
QVQLVESGGGLVQAGGSLRLSCAASGRNFYLYAMGWYRPAPGKERELVAAITRRGGSTYYADSVKGRFTISRDNAKNTVYLQMNSLKPEDTAVYYCAADRPGTGYSDYDYWGQGTQVTVSS	high polyreactivity

Sequence	polyreactivity (PSR sort gate)
QVQLVESGGGLVQAGGSLRLSCAASGSIFEINAMGWYRQAPGKERELVAAITQSGGITYYADSVKGRFTISRDNAKNTVYLQINSLKPEDTAVYYCNTPLLKRTTRGRERNYWGQGTQVTVSS	low polyreactivity
QVQLVESGGGLVQAGGSLRLSCAASGRTFGYYAMGWYRQAPGKEREFVAAIWGGTSTYYADSVKGRFTISRDNAKNTVYLQMNSLKPEDTAVYYCAAEGWLYPTGYSTLHYEYDYWGQGTQVTVSS	low polyreactivity
QVQLVESGGGLVQAGGSLRLSCAASGSTFFPNAMGWYRQAPGKERELIADISISGGSTRYADSVKGRFTISRDNEKNTVYLQMNSLKPEDTAVYYCAVRRSAFYARFGRNYWGQGTQVTVSS	low polyreactivity
QVQLVESGGGLVQAGGSLRLSCAASGSTFIGYAMGWYRHAPGKERELVAGINWSSGSTNYADSVKGRFTISRDNAKNTVYLQMNSLIPEDTAVYYCAADLYWYAHREEYDYWGQGTQVTVSS	high polyreactivity
QVQLVESGGGLVKAGGSLRLSCAASGSIYTNAMGWYRQAPGKERELVAAISWSGGRTYYADSVKGRFTISRDNAKNTVYLQINSLKPEDTAVYYCNPRGTRIASGHYYWGQGTLVTVSS	high polyreactivity
QVLLVESGGGLVQAGGSLRLSCAASGRTLRGYAMGWYRQAPGKERELVAAITWSGGSTYYADSVKGRFTISRDHAKNTVYLQMNSLKPEDTAVYYCNARSYPDLYDYWGQGTQVTVSS	low polyreactivity
QVQLVESGGGLVQAGGSLRLSCAASGRTFSQYDMGWYRQAPGKERELVAAISWSGGRTYYADSVKGRFTISRDNAKNTVYLQMNSLKPEDTAVYYCAAAYSWIRSPYNDPNRGYDYWGQGTQVTVSS	low polyreactivity
QVQLVESGGGLVQAGGSLRLSCAASGSIFYSYAMGWYIQAHGKERELVARINYRGGSTYYADSVKGRFTISRDNAKNTVYLQMNSLKPEDTAVFYCAKRSYWSSNPRDYWGQGTKVTVSS	high polyreactivity
QVQLVESGGGLVQAGGSLRLSCAASGSIFSGNVMGWYRQAPGKERELVAAISGRGGSTYYADSVKGRFTISRDNAKNTVYLQMNSLKPEDTAVYYCAAVYLKTYYWGQGTQVTVSS	high polyreactivity
QVQLVESGGCLVQAGGSLRLSCAASRRIYYYTMGWYRQPPGKERELGATITSSGSSTYYADSVKGRFTISRDNAMNTVYLQMNSLKPEDTAVYYCAAGDRRYQRRYYYWGQGTQVTVSS	high polyreactivity
QVQLVESGGGLVQAGGSLRLSCAASGSTFYAYAMGWYRQAPGKERELVAAINSVGSTYYADSVKGRFTISRDNAKNTVYLQMNSLKPEDTAVYYCARGVDYPTSQPPYFRHDYWGQGTQVTVSS	low polyreactivity
QVQLVESGGGLVQAGGSLRLSCAAYGLTFRVYTMGWYRQAPGKERELVAAISTDGGSTYYADSVKGRFTISRDNAKNTVYFQMNSLKPEDTAVYYCAAKWYSYRWTQFDYWGQGTQVSVSS	high polyreactivity
QVQLVESGGGLVQAGGSLRLSCAASGSTFGSYARGWYRPAPGKERELVAAISRTGGSTRYADSVKGRFTISRDNAQNSVYFQMNSLKPEDSAVYYCNARLSSYSTIRGVYWGQGTQVTVSS	high polyreactivity
QVQLVESGGGLVQAGGSLRLSCAASGFIFYRNTMGWSRQAPGKEREFVAAIRWRGGSTYYADSVKGRFTISRDNAKNTVYLQMNSLKPEDTAVYYCAADTRPGYSGFEYWGQGTQVTVSS	high polyreactivity
QVQLVESGVGLVQAGGSLRLSCAASGFTISYYTIGWSRQAPGKDRELVAAISSTGVSTYYADSVKGRFTISRDTAKNTVYLPLNSLKPEDTSVYYCAADYYGVYEYYYWGQGTQVTVSS	high polyreactivity
QDQLVESGGGLVQAGGRLRLSCAASGLMFYYYAMGWYIQAPGKEREFVAAISRSGGITRYADSVKGRFTISRDNAKNTVYLQMNRLKPEDTAVYYCAAAVGSVRYDYWGQGTQVTVSS	high polyreactivity
QVQLVESGGGLVQAGGSLRLSCAASGFIFYRYAMGWYRQAPGKERELVAAITGSGARTYYADSVKGRFTISRDNAKNTVYLQMNSLKPEDTAVYYCNARGYRGYDYWGQGTQVTVSS	high polyreactivity
QVPLVESGGGLVQAGCSLRLSCAASGSIFTRDAMGWYRPAPGKERELVAAISAGGGTTYYADSVKGRFTNSRDNAKNTVYLLMNSLKPEDSSVFYCAKRSRSGYYADDSWGHGTQVTVSS	high polyreactivity
QVQLVESGGGLVQAGGSLRLSCAASGTTFSYNAIVWYRQAPGKERELVAAISGSGGTTYYADSVKGRFTISRDNAKNTVYLEMNSLKPEDTAVYYCDARPFRSWRYDYWGQGTQVTVSS	low polyreactivity
QVQLVESGGGLVQAGGSLRLSCAASGRISNFYSMGWYIQAPGKERELVAANRSGGSTNYADSVKGRFTISRDNAKYTVYLQMNSLKPEDTAVYYCAAVTGASPTRMDYWGQGTQVTVSS	high polyreactivity
QVQLVESGGGLVQAGGSLRISCAASGSTFRLYAMGWYRQAPGKERELVAAISSNGVRTYYADSVKGRFTISRDNAKNTVYLQMNSLKPEDTAVYYCAARVYPAYPRGYDYWGQGTQVTVSS	high polyreactivity
